# Source: patent publication US8344120B2, “Nucleic acid molecules encoding rage fusion proteins” (TransTech Pharma, Inc., priority 2006, dated 2013)
# T1: S100b (S100) (Homo sapiens, UniProt P04271)
# T1 sequence (P04271 1-92): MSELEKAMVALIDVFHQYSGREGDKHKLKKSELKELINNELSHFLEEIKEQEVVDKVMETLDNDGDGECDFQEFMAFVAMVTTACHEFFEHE
# T2: amphoterin (Ampho) (Homo sapiens, UniProt P09429)
# T2 sequence (P09429 1-215): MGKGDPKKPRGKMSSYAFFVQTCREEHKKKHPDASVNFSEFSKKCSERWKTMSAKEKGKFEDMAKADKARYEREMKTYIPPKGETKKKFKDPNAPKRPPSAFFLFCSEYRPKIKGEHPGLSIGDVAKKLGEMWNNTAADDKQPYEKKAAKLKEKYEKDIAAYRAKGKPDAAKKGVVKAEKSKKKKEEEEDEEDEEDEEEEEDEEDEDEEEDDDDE
# B1: TTP-4000: four domain RAGE fusion protein: human RAGE N-terminal sequence (to position 251) linked to human IgG Fc (γ1) without hinge; SEQ ID NO: 34/56 (protein)
# chain: QNITARIGEPLVLKCKGAPKKPPQRLEWKLNTGRTEAWKVLSPQGGGPWDSVARVLPNGSLFLPAVGIQDEGIFRCQAMNRNGKETKSNYRVRVYQIPGKPEIVDSASELTAGVPNKVGTCVSEGSYPAGTLSWHLDGKPLVPNEKGVSVKEQTRRHPETGLFTLQSELMVTPARGGDPRPTFSCSFSPGLPRHRALRTAPIQPRVWEPVPLEEVQLVVEPEGGAVAPPSVFLFPPKPKDTLMISRTPEVTCVVVDVSHEDPEVKFNWYVDGVEVHNAKTKPREEQYNSTYRVVSVLTVLHQDWLNGKEYKCKVSNKALPAPIEKTISKAKGQPREPQVYTLPPSRDELTKNQVSLTCLVKGFYPSDIAVEWESNGQPENNYKTTPPVLDSDGSFFLYSKLTVDKSRWQQGNVFSCSVMHEALHNHYTQKSLSLSPGK
# Key:
# [1] = biological target: T1, S100b (S100); assay: In vitro ligand binding ELISA, immobilized S100b; details: ligand 5 micrograms per well; fusion protein at increasing dilutions, 37° C. one hour
# Experimental: (§1) For example, the RAGE fusion protein may be used in a binding assay to identify potential RAGE ligands. In one example embodiment of such a binding assay, a known RAGE ligand may coated onto a solid substrate (e.g., Maxisorb plates) at a concentration of about 5 micrograms per well, where each well contains a total volume of about 100 microliters (4). The plates may be incubated at 4° C. overnight to allow the ligand to absorb or bind to the substrate. Alternatively, shorter incubation periods at higher temperature (e.g., room temperature) may be used. […] The RAGE fusion protein bound to the immobilized ligand may be detected in a variety of ways. […] The bound complex may be detected by adding the alkaline phosphatase substrate, para-nitrophenylphosphate (PNPP), and measuring conversion of PNPP to para-nitrophenol (PNP) as an increase in absorbance at 405 nm. […] In the absence of ligand (i.e., coating with only BSA) there was no increase in absorbance. […] Binding was detected by the addition of an immunodetection complex containing a monoclonal mouse anti-human IgG1 diluted 1:11,000 to a final assay concentration (FAC) of 21 ng/100 μL, a biotinylated goat anti-mouse IgG diluted 1:500, to a FAC of […], and an avidin-linked alkaline phosphatase. […]
# [2] = biological target: T2, amphoterin (Ampho); assay: In vitro ligand binding ELISA, immobilized amphoterin; details: ligand 5 micrograms per well; fusion protein at increasing dilutions, 37° C. one hour
# Experimental: as §1
# [3] = biological target: T3, amyloid-beta (Abeta) (Homo sapiens, UniProt P05067); assay: In vitro ligand binding ELISA, immobilized amyloid-beta; details: ligand 5 micrograms per well; fusion protein at increasing dilutions, 37° C. one hour
# T3 construct: Amyloid Beta (1-40) from Biosource; purchased Biosource
# T3 sequence (P05067 672-711 limits assumed): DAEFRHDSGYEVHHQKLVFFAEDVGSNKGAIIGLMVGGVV
# Experimental: as §1
# [4] = tested on: S100b/RAGE-induced production of TNF-α in THP-1 cells; assay: S100b/RAGE-induced production of TNF-α in THP-1 cells; type: cell-based; details: 10 μg protein, 24 hours
# Text: Use of the RAGE fusion proteins of the present invention to modulate expression of the cellular effector TNF-α is shown in FIG. 10. THP-1 myeloid cells may be cultured in RPMI-1640 media supplemented with 10% FBS and induced to secrete TNF-α via stimulation of RAGE with S100b. When such stimulation occurs in the presence of a RAGE fusion protein, induction of TNF-α by S100b binding to RAGE may be inhibited.
# Previous work has shown that the myeloid THP-1 cells may secrete TNF-α in response to RAGE ligands. In this assay, THP-1 cells were cultured in RPMI-1640 media supplemented with 10% FBS using a protocol provided by ATCC. […] The amount of TNF-α secreted by the THP-1 cells was measured 24 hours after the addition of the proteins to the cell culture using a commercially available ELISA kit for TNF-α (R&D Systems, Minneapolis, Minn.).
molecule,measurement,setting,value
B1,binding to immobilized S100b (increase in absorbance at 405 nm),[1],specifically interact
same,binding to immobilized amphoterin (increase in absorbance at 405 nm),[2],specifically interact
same,binding to immobilized amyloid-beta (increase in absorbance at 405 nm),[3],specifically interact
same,reduction of S100b induction of TNF-α,[4]; S100b 0.1 mg/ml FAC,~70%
same,"S100b induction of TNF-α, comparison in words",[4]; S100b 0.1 mg/ml,at least as effective in blocking S100b induction of TNF-α as is sRAGE
